Measurements: article PMC2771873 (2009)
Ends that are not written are not given here.

Target: T1, RyRP12 peptide (ryanodine receptor 1) RyRP12 (UniProt P21817, also: TAMRA label, position not given here)
T1 chain: KKAVWHKLLSKQ
Experiment: fluorescence anisotropy

B1: S100A1 (protein)
chain: MGSELETAMETLINVFHAHSGKEGDKYKLSKKELKDLLQTELSSFLDVQKDADAVDKIMKELDENGDGEVDFQEFVVLVAALTVACNNFFWENS
  Kd: 0.139 µM
